# Data reported in patent US10766940 (GOVERNORS OF THE UNIVERSITY OF ALBERTA, dated 2020).
# Positions of bridges follow the written chain, without caps; N, C: chain ends. No end group written: not given here.
# T1: AMY3 receptor (heterodimeric complex of the calcitonin receptor and RAMP3) (UniProt P30988 25-474; O60896 24-148)
# T1 sequence (looked up) 1: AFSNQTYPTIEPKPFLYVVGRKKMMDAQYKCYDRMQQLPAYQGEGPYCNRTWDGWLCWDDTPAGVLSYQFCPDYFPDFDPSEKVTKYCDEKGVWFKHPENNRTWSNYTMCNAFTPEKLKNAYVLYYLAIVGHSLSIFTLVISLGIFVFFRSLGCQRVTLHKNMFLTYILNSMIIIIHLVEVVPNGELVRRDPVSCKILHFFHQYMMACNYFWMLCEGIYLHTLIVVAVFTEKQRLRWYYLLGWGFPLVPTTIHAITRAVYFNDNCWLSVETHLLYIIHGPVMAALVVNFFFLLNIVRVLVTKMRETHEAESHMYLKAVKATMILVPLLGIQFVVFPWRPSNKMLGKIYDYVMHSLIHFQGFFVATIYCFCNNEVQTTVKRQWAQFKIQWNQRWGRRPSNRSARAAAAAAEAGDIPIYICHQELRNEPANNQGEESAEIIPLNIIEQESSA
# T1 sequence (looked up) 2: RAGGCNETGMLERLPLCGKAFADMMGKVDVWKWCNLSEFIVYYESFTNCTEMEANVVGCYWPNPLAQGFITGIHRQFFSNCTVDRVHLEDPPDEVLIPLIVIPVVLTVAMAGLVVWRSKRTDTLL
# B1: cyclized AC253 (peptide)
# peptide: CLGRLSQELHRLQTYPRTNTGSNTYC-NH2
# modifications: disulfide 1-26; also: flanking Cys said to be D-Cys in one passage
# notes: AC253 with one cysteine added at each terminus, cyclized by a disulfide; cAMP assay used the unlabelled peptide; also called cAC253; cyclic AC253
# B2: AC253 (peptide)
# peptide: Ac-LGRLSQELHRLQTYPRTNTGSNTY-NH2
# modifications: not fully specified; printed as Ac-LGRLSQELHRLQTYPRTNTGSNTY; also: labelled form for binding: Cy5/Cy5.5 on extra N-terminal beta-alanine spacer
# notes: Synthetic 24-residue peptide; cAMP assay used the unlabelled peptide; also called linear AC253; Cy5-AC253
# How the values were obtained:
# [1] = target: amylin receptor in mouse brain (mouse, UniProt Q60755 42-533); test: cell-based or functional assay
# amylin receptor in mouse brain, sequence (Q60755 42-533): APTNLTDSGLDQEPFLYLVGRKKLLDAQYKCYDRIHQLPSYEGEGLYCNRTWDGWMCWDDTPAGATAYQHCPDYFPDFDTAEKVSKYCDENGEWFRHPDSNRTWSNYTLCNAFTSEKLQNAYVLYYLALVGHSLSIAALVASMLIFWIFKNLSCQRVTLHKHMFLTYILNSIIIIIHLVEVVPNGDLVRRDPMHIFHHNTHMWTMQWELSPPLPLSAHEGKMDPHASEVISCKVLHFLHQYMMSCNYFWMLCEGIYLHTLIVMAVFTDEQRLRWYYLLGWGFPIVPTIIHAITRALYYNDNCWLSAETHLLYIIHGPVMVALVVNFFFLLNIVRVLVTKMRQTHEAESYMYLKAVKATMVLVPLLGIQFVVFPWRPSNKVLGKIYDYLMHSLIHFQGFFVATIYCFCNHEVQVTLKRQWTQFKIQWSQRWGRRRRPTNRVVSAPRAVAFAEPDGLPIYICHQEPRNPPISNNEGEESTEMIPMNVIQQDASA
# [2] = target: T1, AMY3 receptor (heterodimeric complex of …); test: cell-based or functional assay
# [3] = target: T1, AMY3 receptor (heterodimeric complex of …); test: flow cytometry, Cy5-labelled peptide 5 µM, AMY3-HEK cells; reference AC253
# Method: (§1) d) For flow cytometry studies, AMY3-293 cells were used to determine cell binding and uptake and binding of Cy5-AC253, and Cy5-cAC253 peptides. Cell were plated at a density of 1.5 ×10^5 cells/well and cultured overnight in 12-well plates at 37° C. Cy5 labelled peptides (5 μM) were added and incubated for 1 hour at 37° C. in serum free media. The culture media was discarded, and cell monolayers were washed with PBS containing 2 mM EDTA and 0.5% BSA adjusted to pH 7.4 at 37° C. Cells were washed again with cold buffer and incubated with 0.25% trypsin to remove cell surface-associated fluorophores. Cells were dispersed in FACS solution (10% FBS in PBS) and analyzed using a FACSCanto II flow cytometer (BD Biosciences, USA) selecting a detection window between 720 and 840 nm. Fluorescence histograms and dot plots were generated using the data were processed with FLOWJO software (Tree Star, Inc, USA). At least 10,000 gated events per sample were analyzed. The experiment was repeated with different peptide concentration ranging from 0.5-10 μM, and mean fluorescence intensity of peptides was extrapolated. To further study the cell uptake mechanism, cells were preincubated with cytochalasin D (cytoD, […]) for 30 minutes, and the experiment was repeated as above. […]
# [4] = target: T1, AMY3 receptor (heterodimeric complex of …); test: flow cytometry, Cy5.5-labelled peptide 5 µM; wild type HEK293 against AMY3-HEK cells
# [5] = target: T1, AMY3 receptor (heterodimeric complex of …); test: flow cytometry, dose-dependent binding of Cy5-labelled peptide (0.5-10 µM) to AMY3-HEK cells
# Method: as §1
# [6] = target: T2, AMY1 receptor (heterodimeric complex of the calcitonin receptor and RAMP1) (UniProt P30988 25-474; O60894 27-148); test: flow cytometry cell uptake, AMY1 transfected cells; reference other fragments
# T2 construct: whole, on cells; also called amylin receptor subtype 1
# T2 sequence (O60894 27-148, one chain of several): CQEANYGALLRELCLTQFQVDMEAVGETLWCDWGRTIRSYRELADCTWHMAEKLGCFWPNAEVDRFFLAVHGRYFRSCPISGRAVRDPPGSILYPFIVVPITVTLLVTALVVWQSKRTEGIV
Binder,"reduction in brain fluorescence after ip injection of Cy5-cAC253 mixed with 5-fold excess of unlabeled cAC253 (in vivo competition, ex vivo NIRF imaging) [1]",IC50 for inhibition of hAmylin evoked cAMP increase in AMY3-HEK cells [2],fold potency versus AC253 in inhibiting AMY3 receptor activity (cAMP) [2],fold binding and uptake compared to AC253 [3],fold decrease in binding and uptake in wild type HEK293 cells compared to AMY3-HEK cells [4],Kd [5],fold increase in specific binding compared to other fragments [6]
B1,75%,~0.3 µM,3 fold,3 fold,10 fold,1450 nM,
B2,,~0.85 µM,,,10 fold,,
"RLQTYPRTNTGS (not fully specified (N-terminus, C-terminus), 12-residue fragment of AC253) [peptide fragment R10 of AC253]",,,,,,,3 fold
